Experimental data from publication PMC11722252.

Target: Caenorhabditis elegans leucine-rich-repeat-containing GPCR (CeLGR), residues Gln31 to Arg712 (Caenorhabditis elegans) (UniProt G5EG04)
Test: MST

C. elegans α2/β5 heterodimeric hormone (Ceα2β5) (from UniProt A7DT38 20-125) (complex)
Kd: 153 nM
